What was measured:
human EGFR [1] = target: T1, human EGFR (human, UniProt P00533 25-645); assay: ELISA, plate coated with 0.1 ug/ml target polypeptide, antibody titrated, absorbance 450 nm
T1 construct: also called human HER1 (EGFR); human EGFR-His
Method: (§1) ELISAs were used to determine the binding specificity of the antibodies. […] The antibodies were also analysed for their ability to bind to human EGFR and human HER2 (Sino Biological Inc., China).
(§2) ELISAs were carried out according to standard protocols. Briefly, 96-well plates (Nunc, Denmark) were coated with 0.1 μg/ml of target polypeptide in phosphate-buffered saline (PBS) for 16 h at 4° C. After blocking for 1 h with 1% BSA in Tris buffer saline (TBS) at room temperature, the anti-HER3 antibody was serially diluted with the highest concentration being 10 μg/ml, and added to the plate. Post 1 h incubation at room temperature, plates were washed three times with TBS containing 0.05% Tween 20 (TBS-T) and were then incubated with a HRP-conjugated […] antibody (Life Technologies, Inc., USA) for 1 h at room temperature. After washing, plates were developed with colorimetric detection substrate 3,3′,5,5′-tetramethylbenzidine (Turbo-TMB; Pierce, USA) for 10 min. The reaction was stopped with 2M H₂SO₄, and OD was measured at 450 nm.

human HER2 [2] = target: T2, human HER2 (human, UniProt P04626 23-652); assay: as above
T2 construct: also called His-tagged HER2 protein
Method: as §1, §2

human HER2 [3] = target: T2, human HER2; assay: ELISA, coated human HER2, antibody titrated, absorbance 450 nm
human EGFR [4] = target: T1, human EGFR; assay: ELISA, coated human EGFR (HER1), antibody titrated, absorbance 450 nm
[5] = target: T3, human HER3 expressed on cells (human, UniProt P21860 20-1342); assay: flow cytometry on HEK293 cells overexpressing human HER3, 20 ug/ml antibody, FITC anti-Fc secondary
T3 construct: HEK293 cells transfected with a vector encoding human HER3; Also used here for HER3 on U2OS PathHunter cells and cancer cell lines; also called HEK293 HER3 O/E cells; HER3-expressing cells
Method: The cells were washed thrice with FACS buffer (PBS with 5 mM EDTA and 0.5% BSA) and resuspended in FITC-conjugated anti-FC antibody (Invitrogen, USA) for 40 min at 2-8° C. Cells were washed again and resuspended in 200 μL of FACS flow buffer (PBS with 5 mM EDTA) for flow cytometric analysis using MACSQuant 10 (Miltenyi Biotec, Germany). After acquisition, all raw data were analyzed using Flowlogic software. Cells were gated using forward and side scatter profile percentage of positive cells was determined for native and overexpressing cell populations.

B1: anti-HER3 clone 10D1 IgG1 (antibody)
heavy: not shown
light: DIVMTQSQKFMSTSVGDRVSVTCKASQIVGSNVAWYQQKPGQSPKPLIYSASYRYSGVPDRFTASGSGTDFTLTITNVQSEDLAEYFCQQYSSHPLTFGAGTKLELKRTVAAPSVFIFPPSDEQLKSGTASVVCLLNNFYPREAKVQWKVDNALQSGNSQESVTEQDSKDSTYSLSSTLTLSKADYEKHKVYACEVTHQGLSSPVTKSFNRGEC
notes: also called 10D1P; 10D1 (parental)
binding result (human EGFR [1]): no binding (tested: about 2e-7 M (log -6.7))
binding result (human HER2 [2]): no binding (tested: about 2e-7 M (log -6.7))

B2: 10D1F.FcA (antibody, human IgG1, kappa)
heavy: not shown
light: DIQMTQSPSSVSASVGDRVTITCKASQIVGSNVAWYQQKPGKAPEPLIYSASYLYSGVPSRFSGSGSGTDFTLTISSLQPEDFATYYCQQYSSHPLTFGQGTKLEIKRTVAAPSVFIFPPSDEQLKSGTASVVCLLNNFYPREAKVQWKVDNALQSGNSQESVTEQDSKDSTYSLSSTLTLSKADYEKHKVYACEVTHQGLSSPVTKSFNRGEC
notes: the full chains 206/207 are used here; also called 10D1F.A; anti-HER3 clone 10D1_c89 IgG1
binding result (human HER2 [3]): no binding (tested: last point at about log(M) -8.1)
binding result (human EGFR [4]): no binding (tested: last point at about log(M) -8.1)

B3: anti-HER3 clone 10D1_c90 IgG1 (antibody, V domains shown)
VH: QVQLQESGPGLVKPSQTLFLTCTVSGYSITSGYSWHWIRQHPGKGLEWIGSIRYSGGTDYNPSLKSLVTISVDTSKNQFSLKLSSVTAADTAVYYCARMTTAPWYPFDYWGQGTTVTVSS
VL: DIQMTQSPSSVSASVGDRVTFTCKASQIVGSNVAWYQQKPGKAPEPLIYSASYLYSSVPSRFSGSGSGTEFTMTISSLEPEDFATYYCQQYTTHPLTFGPGTKVEIKR
notes: IgG1/kappa
% Parent (HER3 Positive) [5]: 41.9%

— patent US20210155712A1 (HUMMINGBIRD BIOSCIENCE HOLDINGS PTE, published 2021)
